This series is described as follows: Isoelectric point of SELP repeat sequence protein polymers. The format is physicochemical.

For “SELP47K: silk-elastin repeat sequence protein block copolymer, head-[(GAGAGS)2(GVGVP)3GKGVP(GVGP)4(GAGAGS)2]13-tail, 886 amino acids”, the “pI of the protein” value is recorded as 10.5.

These data come from patent US7456147B2, “Controlled release of active agents utilizing repeat sequence protein polymers” (Dow Corning, Corporation, priority 2003, dated 2008).
